Measured values as given in patent US8383797B2, “Luciferase gene optimized for use in imaging of intracellular luminescence” (Toyo Boseki Kabushiki Kaisha, priority 2005, dated 2013).

Assays:
[1] = system: cultured fibroblast NIH3T3 cells; experiment: Real-time monitoring of luminescence under control of the Bmal1 promoter in living cells; type: cell-based; settings: PEST-fused luciferase, NIH3T3, 200 μM D-luciferin
Description: Short lifespan-type luciferase was made by ligating a PEST sequence (SEQ ID NO: 7) of murine ornithine decarboxylase to a wild-type (SEQ ID NO: 1) and improved-type (SEQ ID NO: 2) click beetle luciferase cDNA. Vectors in which these had been inserted downstream of a murine circadian clock gene Bmal1 promoter (GenBank Accession No. AB064982) were made. Subsequently, 1 μg of each vector was introduced into cultured fibroblast NIH3T3 cells seeded in a 35 mm culture dish by a lipofection method (LipofectAMINE PLUS, Invitrogen), and the cells were cultured at 37° C. for 24 hours and treated with a DMEM medium containing 100 nM dexamethasone for 2 hours. The medium was replaced with a DMEM medium containing 200 μM D-luciferin and 10% (w/v) bovine serum, and then one minute of luminescence was measured every 15 minutes for 5 days in real time using a real-time gene expression measurement apparatus (AB2500 supplied from ATTO Corporation) (FIG. 1A).

HeLa S3 cells = experiment: Analysis of AP1 response sequence in living cells, 96-well plate; type: cell-based; settings: HeLa S3, TPA or EGF stimulation, 0.2 mM D-luciferin
Description: HeLa S3 cells were seeded at 3×10^4 cells (100 μL) per well in a 96-well white opaque plate, and cultured in Dulbecco's Modified Eagle's Medium DMEM (Nissui Pharmaceutical Co., Ltd.) containing 10% FCS. The following day, 0.2 μg per well of the plasmid pELuc-AP1 or pGL3-AP1 (diluted with 25 μL of DMEM containing no FCS) and 0.5 μL of Lipofectamine 2000 transfection reagent (Invitrogen, diluted with 25 μL of DMEM)) were mixed and added to the cells in the medium replaced with 100 μL of DMEM+0.1% FCS, which was incubated for 24 hours to introduce the gene. The following day, the medium was either not replaced, or replaced with DMEM+0.1% FCS (further containing 0.2 mM D-luciferin) containing 0.01 μM TPA (Sigma), 0.1 μM TPA, 1 μM TPA or 10 ng/mL of EGF, and the cells were incubated for 5 hours. Subsequently, the luminescence was measured using a plate reader 1420 ARVOMX (Perkin Elmer). In the graph for measurement values, readout values were plotted, and in the graph for induction ratios, an expression induction ratio at each concentration calculated when the value in an additive-free condition equaled 1 was plotted.

[2] = system: cultured fibroblast rat1 cells; experiment: Real-time monitoring of luminescence under control of the Bmal1 promoter in living cells; type: cell-based; settings: PEST-fused luciferase, luminescence amount integrated within 24 hours
Description: Short lifespan-type luciferase was made by ligating the PEST sequence (SEQ ID NO: 7) of murine ornithine decarboxylase to firefly luciferase cDNA (Luc(+), supplied from Promega) derived from Photinus pyralis produced in North America and improved-type click beetle luciferase cDNA (SEQ ID NO: 2). Vectors in which these had been inserted downstream of a murine circadian clock gene Bmal1 promoter (GenBank Accession No. AB064982) were made. Subsequently, 1 μg of each vector was introduced into cultured fibroblast rat1 cells seeded in a 35 mm culture dish by the lipofection method (LipofectAMINE PLUS), and the cells were cultured at 37° C. for 24 hours and treated with the DMEM medium containing 100 nM dexamethasone for 2 hours. The medium was replaced with a DMEM medium containing 200 μM D-luciferin and 10% (w/v) bovine serum, and then one minute of luminescence was measured every 15 minutes for 5 days using the real-time gene expression measurement apparatus (AB2500 supplied from ATTO Corporation) (FIG. 2).

[3] = system: cultured fibroblast NIH3T3 cells; experiment: Bioluminescence imaging of cells expressing FLAG-tagged luciferase; type: cell-based; settings: CMV promoter, FLAG tag, NIH3T3, 200 μM D-luciferin, CCD camera, three minutes
Description: A FLAG tag sequence (MDYDDDDK; SEQ ID NO: 15) was ligated to the N terminus of the firefly luciferase cDNA (Luc(+), supplied from Promega) derived from Photinus pyralis produced in North America and the improved-type click beetle luciferase cDNA (SEQ ID NO: 2). The expression vector (2 μg) obtained by inserting one of them downstream of the CMV promoter was introduced in the cultured fibroblast NIH3T3 cells by the lipofection method, and the cells were cultured at 37° C. for 24 hours. Subsequently, the medium was replaced with a DMEM medium containing 200 μM D-luciferin and 10% (w/v) bovine serum, and three minutes of bioluminescence was measured using a CCD camera (Cellgraph supplied from ATTO Corporation) cooled to −60° C.

[4] = system: cultured fibroblast NIH3T3 cells; experiment: Transient assay of Bmal1 promoter activity, luminescence of cell extract; type: cell-based; settings: PEST-fused luciferase, NIH3T3, cell lysate, luminometer
Description: The aforementioned reporter vector (200 ng) was introduced into the cultured fibroblast NIH3T3 cells seeded in a 24-well plate by the lipofection method, the cells were cultured at 37° C. for 24 hours, and disrupted with 300 μL of a cell lysis agent (cultured cell lysis agent for PicaGene Dual Seapansy supplied from Toyo Ink MFG Co., Ltd.). A luminescent substrate solution (50 μL) (PicaGene luminescence reagent II) was added to a cell extract solution (50 μL), and 20 seconds of luminescence was measured using a luminometer (AB2250 supplied from ATTO Corporation) (FIG. 1B).

[5] = pH dependency of luminescence of recombinant luciferase enzyme preparations; type: biochemical; settings: pH 6.6 to 8.8, relative activity with pH 8.0 set as 100
Description: A click beetle-derived luciferase enzyme preparation was acquired as a recombinant body by inserting the luciferase gene PtGRm in the vector pELuc-test (Toyobo Co., Ltd.) into the expression vector for Escherichia coli and expressing it in Escherichia coli. As a firefly luciferase enzyme preparation, QuantiLum Recombinant Luciferase (Promega, described as fLuc in the figure) was used. For each enzyme preparation, a luminescence reagent containing 15 mM MgSO4, 6 mM EDTA, 4 mM Co-enzyme A, 1.2 mM D-luciferin, 6 mM DTT, 0.2% Nonidet P40, 2 mM ATP and 2 μg/mL of the enzyme preparation was prepared. Then, 100 μL of ATP solution at […], 0.2 mM or 1 mM and 100 μL of 100 mM Hepes-NaOH pH 6.6 to 8.8 were mixed, and the luminescence was measured.
A graph of luminescence measurement values and a graph obtained by plotting the relative activity at each pH when the measurement value at pH 8.0 was set as 100 in each luciferase are shown in FIG. 12.

B1: improved-type click beetle luciferase: Pyrearinus termitilluminans click beetle luciferase expressed from the modified gene of SEQ ID NO: 2 (protein)
chain: MEREKNVVYGPEPKHPLGNFTAGEMLYNALHKHSHIPQAILDVMGNESLSYQEFFDTTVKLGQSLQNCGYKMNDVVSICAENNKRFFIPIISAWYIGMVVAPVNEDYIPDELCKVTGISKPILVFTTRKILPKVLEVKDRTNYIKRIIILDSEENLLGCESLHNFMSRYSDNNLQTFKPLHYDPVDQVAAILCSSGTTGLPKGVMQTHRNICVRLTHASDPRVGTQLIPGVSVLAYLPFFHAFGFSINLGYFMVGLRVVMLRRFNQEVFLKAIQDYEVRSVINVPSTILFLSKSPLVDKYDLSTLAELCCGAAPLAKEVAEIAVKRLNLPGIRCGYGLTESTSANIHTLHNEFKSGSLGKVTPYMAAKIIDRNTGEALGPNQVGELCIWGPMVTKGYVNNPQATKEAIDDDGWLHSGDFGYYDEDEYFYIVDRYKELIKYKGYQVAPVELEEILLQHPGIRDVAVVGIPDIEAGELPAGFVVKQPGAQLTAKEVYDFLAQRVSHSKYLRGGVRFVDSIPRNVTGKISRKELREALMEKASKL
modifications: Pyrearinus termitilluminans
[1]
  luminescence intensity relative to wild-type luciferase: about 100 times
HeLa S3 cells
  luminescence intensity relative to conventional luciferase: 15 times
[2]
  luminescence intensity relative to firefly luciferase derived from Photinus pyralis: ≥ 15 times
[3]
  bioluminescence signal of cells compared with firefly luciferase: clearly emit strong signals
[4]
  luminescence intensity relative to wild-type luciferase: about 150 times
[5]
  variation of luminescence activity due to pH compared with firefly luciferase: variation due to the pH values is smaller
